According to US20150290319A1 (EMERGENT BIOSOLUTIONS CANADA, published 2015):

Experiments:
[1] = biological target: recombinant toxin B fragment 1 (Clostridium difficile, UniProt P18177 1-546); assay: Western blot, 3 ug protein per lane, mAb from CHOK1SV at 0.038 ug/mL [Cont.]
[2] = biological target: recombinant toxin B fragment 4 (Clostridium difficile, UniProt P18177 1777-2366); assay: as above
Chain of recombinant toxin B fragment 4 (P18177 1777-2366 limits assumed): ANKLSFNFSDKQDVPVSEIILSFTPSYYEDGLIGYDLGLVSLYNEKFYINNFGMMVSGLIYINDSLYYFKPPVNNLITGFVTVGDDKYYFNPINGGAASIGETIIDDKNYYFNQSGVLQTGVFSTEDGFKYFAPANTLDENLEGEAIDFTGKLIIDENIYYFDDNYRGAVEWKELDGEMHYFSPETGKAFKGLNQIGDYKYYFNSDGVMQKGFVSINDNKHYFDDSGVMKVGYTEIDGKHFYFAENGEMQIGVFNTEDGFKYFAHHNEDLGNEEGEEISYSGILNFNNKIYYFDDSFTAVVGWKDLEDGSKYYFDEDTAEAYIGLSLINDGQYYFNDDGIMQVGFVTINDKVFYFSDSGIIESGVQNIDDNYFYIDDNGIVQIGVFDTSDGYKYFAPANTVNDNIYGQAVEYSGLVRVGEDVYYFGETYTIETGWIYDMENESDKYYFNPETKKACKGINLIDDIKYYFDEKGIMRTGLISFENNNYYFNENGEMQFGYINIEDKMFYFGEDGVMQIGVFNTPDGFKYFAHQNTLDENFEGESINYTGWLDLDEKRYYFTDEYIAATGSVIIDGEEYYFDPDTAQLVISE

Chain of recombinant toxin B fragment 1 (P18177 1-546 limits assumed): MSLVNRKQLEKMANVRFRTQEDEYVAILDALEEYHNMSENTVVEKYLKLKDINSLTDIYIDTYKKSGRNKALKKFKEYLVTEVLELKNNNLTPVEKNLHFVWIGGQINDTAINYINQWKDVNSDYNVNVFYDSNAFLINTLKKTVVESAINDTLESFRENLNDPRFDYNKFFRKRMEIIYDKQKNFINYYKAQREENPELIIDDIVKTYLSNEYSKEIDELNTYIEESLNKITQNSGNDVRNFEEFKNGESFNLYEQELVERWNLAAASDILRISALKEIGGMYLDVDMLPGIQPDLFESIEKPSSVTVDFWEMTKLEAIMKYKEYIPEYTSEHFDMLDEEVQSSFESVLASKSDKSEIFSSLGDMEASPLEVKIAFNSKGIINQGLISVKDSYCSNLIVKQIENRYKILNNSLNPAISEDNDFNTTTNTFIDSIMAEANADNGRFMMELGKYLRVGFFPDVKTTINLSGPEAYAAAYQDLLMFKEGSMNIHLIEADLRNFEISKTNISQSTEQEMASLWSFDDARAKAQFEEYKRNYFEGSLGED

B1: huCAN46G24 (antibody, V domains shown)
VH: EVQLVQSGAEVKKPGESVKVSCKASGYSFTGYYIHWVKQAPGQGLEWVGRIFPYNGAASYNQNFKGKATLTVDKSSSTAYMELSSLRSEDTAVYFCARWLRVYFDYWGQGTTVTVSS
VL: EIVLTQSPSSLSTSVGDRVTISCSASSSVTYMHWYQQKPGKAPKLWIYETSKLASGVPGRFSGSGSGNSYTFTISSLQPEDIATYYCFQGSGYPFTFGQGTKVEIK
notes: also called HuCAN46G24-2-3
B1: no binding (tested: 0.038 ug/mL) [1]; binds [2].
